Test results as given in the DeepSol protein solubility set.

Assay: soluble on expression in E. coli; label from the status in PepcDB or PDB records

Sequence	soluble on expression in E. coli
MNFLLILTLISIIVRSRQENASMDPCNDFYDYVCTNDTRSITKLNFASLFDDREILKPNISFPNNGTYIALDQILEPDRLMKWYMTVKSLDTATVDLEYFFETHYEYISKKNDSEKFSFAVETLENVNLTLTNIFYNSLYANIKVLNQLNLPAAEENKFLHHISNLLKNNTIEEIWSSSLSNKSKKVLDEELNNSKVFFGLLDYNNVTMLEETKLVYETEYYRLKSLLSSDDLDTEIAEKILRLGAIDTATKYLAKRIPGYEPEFLFSAFASNMENEAFKHNSAIYAGIVTRSDLQQPMLAIADTVSVLAHELMHFVYPSGTELLTPNVTKAAKKCTQDEVKRMGDSDVVKPIDGWFSKKVTHEDLANIMGLRMVMKMVARKSASEEQLKNALETLLSGLCIQGKPKNSILPHHHPFEISINTAVRQYPLFSSLYGCRLGDRMFAEAEQFCKPLGGEVNLEDYKIKNDTEDIGGFFTYIMDTANAFNFSFRN	not soluble
MNFNQFENQNFFNGNPSDTFKDLGKQVFNYFSTPSFVTNIYETDELYYLEAELAGVNKEDISIDFNNNTLTIQATRSAKYKSEQLILDERNFESLMRQFDFEAVDKQHITASFENGLLTITLPKILEHHHHHH	soluble
MNFQEENENIKNDIEINLLHSAEADSVEAMMDLAVYGLAAMVAKHNKTRGEQLVLQAIAGHMRKLLAALPETESLVQTGKVYRRLEDLIFKTYLPEQ	not soluble
MNFRTDSIDDLDKFKKEFKPVMHLKGDAFNQQLQSLINKYPQIQKNMKSEFIAYYDKEKNRETVKNYAWNLQKSINDIMQSYPSTKFVQFYKDDVSPSMVDGNGRLKSDTNVISIEGGKYDENKLEHHHHHH	soluble
MNGIKTGLGITPGEHIISADSALSRNIRQCFCLSCHGRLILQTDAQGAWFEHDLHALSEQQKADCVVLNPEKSHPYIEDMAMFLSPLPVVLEWHCVMCEQFFHGKKFCEACGTGIYCRAVCTKSVYSYQPDLFEDCGGAST	not soluble
MNGQAKIAEPRRLYQQIADQIRELIDVGEFLPGTRLPAERELAQKLGVSRPSLREALIALEIDNTVEIRMGSGVYVSTEALQTTHHTKSLGDSPSELMQARAALEGATIVLAANRMTDETIAALRQILNTMQKEIEAGRKPLDQDRLFHVTIAEQSGNSVLARLVANLFDERHSPISAQLRVKFEDRDTWTRALQEHEAILAALELKDPLLAQAAMHIHLEGSKRRWVDS	soluble
MNHVKKHVLWKDEYFERYYRLNPELVQKRLDKIYQAEDDLMVLISTQLFCFLQANGTLYFDGCYKTGKADNSLLCTNLALWSIELACDHFDIREERGHTTKFSEQGESWLTLFACNQFSLVPYCYPAIQRGFQSGVLKEIVPFYREQKLGILAMEIMARERGDTINWEAMQVRVDPVYLDFCQNILLSSDDELVRTGLITLCDKHLEWTDFHNSDKHCCLTGYEIQRQDLLLWPFEYQAVKNWRARQGLSTPMIEHPLMNSPMTTANCPDFSQWQRPEWFNPLVDFLAQRRPELAFLRHLFI	not soluble
MNIGNITISVIIPVYNASVTLPHCLESLHKQTYRNLELLFVDDCSTDESLYILTSYAEQFAEIDFTIRILQHERNRGVAAARNTALKCATGDYIYYVDADDSIEPHTLECLVNEINHKGLDIVGHEWYLTFNSNARYMKQPAYTTSVEALRKMMGGVMRWNLWLFLVRRSLYVENDIRFTEGLNMGEDMMVMMKLFICAGKVGIVHRPFYHYRQSNPESLTKIYSQEHIIQVANNVYEVEKYVNASAYADSLIEFIPFLKLNIKLPLLITDDKSHYEQWLECFPEANCYVMNNKLLPLRTRIIQWMAVKRYFILLRLYYRTVFKLVYGIIYKLEHHHHHH	not soluble
MNIGSAIREIRQRRGITIAQICEGTGLSKGFMSQVENNKTSPSISTLETISNFLNVPLPYLLLEQKDRLKIVKKEERKYSVYGKDEQRIEHVAEQGGLRLSLVEIPTGFPKENSPNAHEGEECHLVLRGKLEVQHGEDIAIVEEGDSFSWNACVPHIVRNIGEETALLLISSYAENRQRVY	not soluble
MNIHEIRKQFPILDQKVNGKQLVYFDSAATSQKPIQVIETLERYYKEYNSNVHRGVHTLGTKATDAYEGAREKVRKFINAKSMEEIIFTCGTTTALNTVAASYGLENVKEGDEIVISYMEHHSNIIPWQQVAKKTGATLKYLPLQPDGTISIEDARQTITPNTKIVSIMYVSNVLGTINPVKEIGAIAHENGAIMVVDGAQSTPHMKVDVQDLNCDFYALSAHKMCGPTGIGVLYGKKELLNNMEPIEFGGEMIDFVDLQESTWKELPWKFEAGTPIIGNAIGLGAAIDFLEEIGLDNIEKHEHELAQYALERLSEVDGVTIYGPKHRAGLVTFNIEDVHPHDVATVLDVEGIAVRAGHHCAQPLMKWLKASSTARASFYLYNTKEEIDTFVESLIKTKEYFTNVI	not soluble
MNIITLKVAIVEPLPMIRAGLEALLKKITGYKIQFIDAPADNGWVDVISFYCPDVVFMNPLVSGLTRNESDKACPQSRYVGLLTTPIDSNMLHNYDDTLSVHATVEELKQLLERLYQKTLEPEESGEEQQTLTNREKEIVVGVVKGMTNKEIAEELFLSTHTVITHRRNIAKKLQIHSPSGLTIYAIMNKLVNLDEIAH	not soluble
MNILYTVENSIYVNITNTCPCSCVFCIRNEKDEVANSGSLWLEHEPSVDEVKEAFNKYNLDDYDEIVFCGYGEPLMRINELIDVAKFIKEKSSIKIRINTNGLSDLIHNKKTAILLKDVIDAVSISLNAPNKEAYNRVTQPKFGEKSFDYMLDFAKDCKKYIKEVAFSVVDEISPEEIEESKQLAKKLDIPLRVRHKN	not soluble
MNIMITKKAFDWYKRELGLKPGDAIRFFARYGGCSTVQKGFSLGMAKDELVDKPAAQTTVDGITFFIEESDQWYFDGRDLTVDLDEKSDEPVFLVH	not soluble
MNINPFANVSLQDYLEIVQIVDSTFPIGSFNHSFGMENYLREDTVTDDKGYEEWQEAYLASQFKYGEGLVIKLVYDAMVTDNIDQVWYYDKVLTVSTQARETRQGTKMIAKQMLRLIQRLHAIPVLDDYQSKIRKGVAFGNPAIVFALYVFNKGLGCNEAIALYGYSVISTMVQNAVRAIPLGQFAGQEIVLRSFSQLEKMTQEIQELDASYLGANTPGLELAQMKHETQVFRLFMSLEHHHHHH	not soluble
MNINTDIFKIQSNNVMPSRGKILISEPFLHDVTFGRSVVLLVDHTEEGSMGLIINKPLPLMLNDIIKEFKYIEDIPLHKGGPIGTDTLFYLHTLHEIPGTLPINNGLYLNGDFDAIKKYILQGNPIKGKIRFFLGYSGWECEQLIQEIKENTWIISKEENTYLMNEDIKGMWKEALGKLGSKYETWSRFPQVPSLNLEHHHHHH	not soluble
MNIRDLEYLVALAEHRHFRRAADSCHVSQPTLSGQIRKLEDELGVMLLERTSRKVLFTQAGMLLVDQARTVLREVKVLKEMASQQGETMSGPLHIGLIPTVGPYLLPHIIPMLHQTFPKLEMYLHEAQTHQLLAQLDSGKLDCVILALVKESEAFIEVPLFDEPMLLAIYEDHPWANRECVPMADLAGEKLLMLEDGHCLRDQAMGFCFEAGADEDTHFRATSLETLRNMVAAGSGITLLPALAVPPERKRDGVVYLPCIKPEPRRTIGLVYRPGSPLRSRYEQLAEAIRARMDGHFDKVLKQAV	soluble
MNIVITGGTGLIGRHLIPRLLELGHQITVVTRNPQKASSVLGPRVTLWQGLADQSNLNGVDAVINLAGEPIADKRWTHEQKERLCQSRWNITQKLVDLINASDTPPSVLISGSATGYYGDLGEVVVTEEEPPHNEFTHKLCARWEEIACRAQSDKTRVCLLRTGVVLAPDGGILGKMLPPFRLGLGGPIGSGRQYLAWIHIDDMVNGILWLLDNELRGPFNMVSPYPVRNEQFAHALGHALHRPAILRVPATAIRLLMGESSVLVLGGQRALPKRLEEAGFAFRWYDLEEALADVVR	soluble
MNIVSWKDANDEVAGGATTRREREVKEDQEETEVRATSGKTVIKKQPTSISSSSSSWMKSKDPRIVRVSRAFGGKDRHSKVCTLRGLRDRRVRLSVPTAIQLYDLQERLGVDQPSKAVDWLLDAAKEEIDELPPLPISPENFSIFNHHQSFLNLGQRPGQDPTQLGFKINGCVQKSTTTSREENDREKGENDVVYTNNHHVGSYGTYHNLEHHHHHHQHLSLQADYHSHQLHSLVPFPSQILVCPMTTSPTTTTIQSLFPSSSSAGSGTMETLDPRQMVSHFQMPLMGNSSSSSSQNISTLYSLLHGSSSNNGGRDIDNRMSSVQFNRTNSTTTANMSRHLGSERCTSRGSDHHM	soluble
MNKDIETQRFKQQKKWQKYYKFRGQFFLMKKYSKRMIFDRRIKMTTKEKIEFIKQVTPHSDSEVEKIIKGMSDTSINRWYEIEKYRIDQELEEAVLTIYC	not soluble
MNKEQECSKNIFDLPREIVIYHLKSAGIFVFEELDCDDIAQTPLLIMAPSVPLHVRLERTPTINLLKCHEKPLTEDQLFLLLSKCQQHTKKCMPSEEEIDQWVEVSSSKPREQSSNRGSKKDSWNHSIFMYNFFHRRGSNKRAAKYLEKIENGKSEKIRARVSQIRNLDLGYISLPMETINLEDAKQRDKLKEKALAETAESKKGKDILNLFTNVYY	not soluble
MNKHERLDEIAKLVNKKGTIRTNEIVEGLNVSDMTVRRDLIELENKGILTKIHGGARSNSTFQYKEISHKEKHTRQIAEKRYIARKAASLIEDGDTLFFGPGTTVELLAEEVNHHTLTIITNCLPVYKILLEKQTAHFRVYLIGGEMRHITEAFVGEMANAMLEKLRFSKMFFSSNAVNKGAVMTSTLDEAYTQQLALSNSIEKYLLIDHTKVGKEDFTSFCQLNELTAVVMDYEDEEKVETIKTYIEVVDLEHHHHHH	soluble
MNKKKFENLPKWNNFALFNFLAKDKENSLEVMVAARGFAVPGIVATNYETAEEAANVVKELQTTAEVISVGLGGGGDWQNWRDVLHIARLAPNSHINQPIETAGLTNGLLPETYTNALVRPTGKVGIVKLSSGDEITAEEAVDYCLSANIPSIKFMSIEGTKYLDELVYLTKIAADKGIYGIEPAGGIGADNILEITTAIKSTGIPFYMPHIFGKTIDKATGRTKPEEIEKIFAALEGN	soluble
MNKRNTQQRRHSIISILNEQGEVSVDELSLRFETSEVTIRKDLAELEKTGLLLRRYGGAVAIPDEVTQQFSAKIAPNKLSIAKAAAQLIKDHNRIIIDSGTTTSGLIAELNQKRGLVVMTNALHLANAIHELENEPTLLMTGGTWDPHSESFQGQVAEQVLRSYNFDQLFIGADGIDLARGTTTFNELTGLSKVMAEVSREVIVMVDSDKIGKRIPNLELPWSKISVLVTDARIEESALKQITEQGVKVILAPYSPLEHHHHHH	soluble
MNKTLIAAAVAGIVLLASNAQAQTVPEGYQLQQVLMMSRHNLRAPLANNGSVLEQSTPNKWPEWDVPGGQLTTKGGVLEVYMGHYMREWLAEQGMVKSGECPPPYTVYAYANSLQRTVATAQFFITGAFPGCDIPVHHQEKMGTMDPTFNPVITDDSAAFSEQAVAAMEKELSKLQLTDSYQLLEKIVNYKDSPACKEKQQCSLVDGKNTFSAKYQQEPGVSGPLKVGNSLVDAFTLQYYEGFPMDQVAWGEIKSDQQWKVLSKLKNGYQDSLFTSPEVARNVAKPLVSYIDKALVTDRTSAPKITVLVGHDSNIASLLTALDFKPYQLHDQNERTPIGGKIVFQRWHDSKANRDLMKIEYVYQSAEQLRNADALTLQAPAQRVTLELSGCPIDADGFCPMDKFDSVLNEAVK	soluble
